The values that follow come from patent publication US20100190699A1 (INDIANA UNIVERSITY RESEARCH AND TECHNOLOGY, published 2010).

Common to all, as to test: cell-based or functional assay
The target in assay [1] is T1, glucagon receptor (UniProt P47871 26-477, limits assumed).
The target of assay [2] is T1, glucagon receptor. The source holds these as a separate data set.
Another assay addresses GLP-1 receptor (UniProt P43220 24-463, limits assumed).

T1 sequence (P47871 26-477 limits assumed): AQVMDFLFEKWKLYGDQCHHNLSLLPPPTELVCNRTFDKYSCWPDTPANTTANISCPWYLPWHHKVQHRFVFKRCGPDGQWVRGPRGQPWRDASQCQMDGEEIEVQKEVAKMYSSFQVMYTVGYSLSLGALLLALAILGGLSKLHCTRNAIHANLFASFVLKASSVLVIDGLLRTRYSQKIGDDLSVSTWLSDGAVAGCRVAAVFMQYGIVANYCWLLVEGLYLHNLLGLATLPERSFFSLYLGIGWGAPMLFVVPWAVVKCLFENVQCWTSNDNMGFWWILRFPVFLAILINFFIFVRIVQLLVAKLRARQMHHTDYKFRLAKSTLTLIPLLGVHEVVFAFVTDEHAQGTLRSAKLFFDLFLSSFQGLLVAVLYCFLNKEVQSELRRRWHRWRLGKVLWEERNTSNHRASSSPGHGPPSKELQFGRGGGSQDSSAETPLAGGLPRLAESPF

Consider HSQGTFTSDYSKYLDSRRAQDFVQWLMNKK [glucagon analog K29, K30], for which the “Observed EC50 (cAMP induction), Test 1” value with glucagon receptor [1] was found to be 0.89 nM. With HSQGTFTSDYSKYLDSRRAQDFVQWLMDTE [glucagon analog D28, E30], in the assay with glucagon receptor [1], the “Observed EC50 (cAMP induction), Test 3” value was 0.05 nM. Turning to HSQGTFTSDYSKYLDSRRAQDFVQWLMDE [glucagon analog D28, E29], in the assay with glucagon receptor [1], the “Observed EC50 (cAMP induction), Test 3” value was 0.03 nM. As to HSQGTFTSDYSKYLDSRRAQDFVQWLMNTE [glucagon analog E30], the “Observed EC50 (cAMP induction), Test 2” value with glucagon receptor [1] was 0.04 nM. On to HSQGTFTSDYSRYLDSRRAQDFVQWLMNK [Glucagon R12 K29], for which the “cAMP Induction, EC50 (luciferase reporter)” value in the assay with glucagon receptor [2] was found to be 0.81 nM; with GLP-1 receptor, 0.41 nM.

Take HSQGTFTSDYSKYLESRRAQDFVQWLMDT [glucagon analog D28, E15]: the “Observed EC50 (cAMP induction), Test 3” value in the assay with glucagon receptor [1] amounted to 0.15 nM. With HSQGTFTSDYSKYLDSRRAQDFVQWLMNTKK [glucagon analog K30, K31], the “Observed EC50 (cAMP induction), Test 2” value with glucagon receptor [1] was found to be 0.12 nM.
